Tested on: Escherichia coli TOP10
Test: shrunken log2 fold change of peptide-encoding DNA abundance (4.5 h post-induction vs induction); higher = less antimicrobial activity (less host growth inhibition)
Settings: time post-induction: 4.5 h; library: site-saturation at positions 5, 18, 19, 20
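Note: peptides expressed intracellularly from a pBAD plasmid library in pooled LB shake-flask culture, induced with 0.3% L-arabinose, DNA abundance read by NGS, three biological replicates, DESeq2 with apeglm shrinkage.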

| Sequence | shrunken log2 fold change |
| --- | --- |
| RRIRDRPPRLPRPRPRPEIMPRP | 0.245 |
| RRIRLRPPRLPRPRPRPSFPPRP | -0.159 |
| RRIRHRPPRLPRPRPRPIILPRP | -0.113 |
| RRIRNRPPRLPRPRPRPYIRPRP | 0.00719 |
| RRIRYRPPRLPRPRPRPQVDPRP | -0.205 |
| RRIRLRPPRLPRPRPRPGLGPRP | 0.342 |
| RRIRTRPPRLPRPRPRPSTLPRP | -0.853 |
| RRIRCRPPRLPRPRPRPLILPRP | -0.373 |
| RRIRYRPPRLPRPRPRPPAFPRP | -0.242 |
| RRIRGRPPRLPRPRPRPRWIPRP | 0.152 |
| RRIRVRPPRLPRPRPRPAIIPRP | -0.425 |
| RRIRARPPRLPRPRPRPQHVPRP | 0.0233 |
| RRIRNRPPRLPRPRPRPEAHPRP | -0.0208 |
| RRIRARPPRLPRPRPRPFAQPRP | 0.213 |
| RRIRVRPPRLPRPRPRPAVNPRP | 0.138 |
| RRIRCRPPRLPRPRPRPSSWPRP | -0.251 |
| RRIRCRPPRLPRPRPRPLYYPRP | -1.03 |
| RRIRMRPPRLPRPRPRPRINPRP | 0.19 |
| RRIRQRPPRLPRPRPRPMWWPRP | 0.128 |
| RRIRERPPRLPRPRPRPWELPRP | -0.238 |
| RRIRWRPPRLPRPRPRPRPQPRP | 0.588 |
| RRIRGRPPRLPRPRPRPAQTPRP | 0.221 |
| RRIRDRPPRLPRPRPRPLSHPRP | -0.0109 |
| RRIRLRPPRLPRPRPRPKLLPRP | -0.331 |
| RRIRNRPPRLPRPRPRPWYCPRP | -0.451 |

| Sequence | shrunken log2 fold change |
| --- | --- |
| RRIRNRPPRLPRPRPRPNEPPRP | -0.000856 |
| RRIRHRPPRLPRPRPRPIWIPRP | 0.0409 |
| RRIRNRPPRLPRPRPRPNNCPRP | -0.0864 |
| RRIRPRPPRLPRPRPRPGPPPRP | 0.366 |
| RRIRARPPRLPRPRPRPWGMPRP | -0.00469 |
| RRIRMRPPRLPRPRPRPEICPRP | 0.00534 |
| RRIRSRPPRLPRPRPRPNYAPRP | -0.327 |
| RRIRLRPPRLPRPRPRPGASPRP | 0.642 |
| RRIRTRPPRLPRPRPRPYKMPRP | -0.0239 |
| RRIRKRPPRLPRPRPRPRPFPRP | 0.612 |
| RRIRNRPPRLPRPRPRPSPHPRP | -0.171 |
| RRIRVRPPRLPRPRPRPGQEPRP | 0.0329 |
| RRIRPRPPRLPRPRPRPCPHPRP | -0.81 |
| RRIRPRPPRLPRPRPRPFFKPRP | -0.0682 |
| RRIRHRPPRLPRPRPRPPVLPRP | 0.0936 |
| RRIRARPPRLPRPRPRPLKDPRP | 0.0838 |
| RRIRDRPPRLPRPRPRPNKAPRP | 0.0205 |
| RRIRKRPPRLPRPRPRPPNNPRP | 0.364 |
| RRIRDRPPRLPRPRPRPMCNPRP | -0.0221 |
| RRIRHRPPRLPRPRPRPAEQPRP | 0.0649 |
| RRIRVRPPRLPRPRPRPKMYPRP | -0.252 |
| RRIRVRPPRLPRPRPRPETEPRP | 0.276 |
| RRIRDRPPRLPRPRPRPRMIPRP | -0.237 |
| RRIRMRPPRLPRPRPRPDDHPRP | 0.00288 |
| RRIRRRPPRLPRPRPRPFTQPRP | -0.223 |

| Sequence | shrunken log2 fold change |
| --- | --- |
| RRIRLRPPRLPRPRPRPPCYPRP | 0.00883 |
| RRIRDRPPRLPRPRPRPMHVPRP | -0.00476 |
| RRIRWRPPRLPRPRPRPDLIPRP | 0.0332 |
| RRIRCRPPRLPRPRPRPQMSPRP | -0.201 |
| RRIRPRPPRLPRPRPRPYKMPRP | -0.605 |
| RRIRPRPPRLPRPRPRPCATPRP | 0.132 |
| RRIRMRPPRLPRPRPRPSTSPRP | -0.0821 |
| RRIRARPPRLPRPRPRPWCYPRP | -0.306 |
| RRIRDRPPRLPRPRPRPKASPRP | 0.224 |
| RRIRRRPPRLPRPRPRPHGLPRP | 0.217 |
| RRIRERPPRLPRPRPRPYAPPRP | -0.624 |
| RRIRARPPRLPRPRPRPKVFPRP | 0.193 |
| RRIRARPPRLPRPRPRPKAVPRP | 0.706 |
| RRIRLRPPRLPRPRPRPHHNPRP | -0.547 |
| RRIRIRPPRLPRPRPRPPFVPRP | 0.104 |
| RRIRGRPPRLPRPRPRPLVSPRP | 0.355 |
| RRIRERPPRLPRPRPRPGSMPRP | -0.343 |
| RRIRIRPPRLPRPRPRPGKYPRP | -0.394 |
| RRIRYRPPRLPRPRPRPHVWPRP | 0.0773 |
| RRIRARPPRLPRPRPRPGRCPRP | 0.745 |
| RRIRCRPPRLPRPRPRPWVWPRP | -0.00389 |
| RRIRERPPRLPRPRPRPNHPPRP | -0.278 |
| RRIRCRPPRLPRPRPRPYKSPRP | -1.19 |
| RRIRARPPRLPRPRPRPMDAPRP | 0.293 |
| RRIRHRPPRLPRPRPRPGMLPRP | -0.0926 |

| Sequence | shrunken log2 fold change |
| --- | --- |
| RRIRWRPPRLPRPRPRPATVPRP | 0.111 |
| RRIRNRPPRLPRPRPRPENHPRP | -0.124 |
| RRIRLRPPRLPRPRPRPHKDPRP | -0.697 |
| RRIRKRPPRLPRPRPRPAEVPRP | 0.171 |
| RRIRCRPPRLPRPRPRPNRPPRP | -0.0846 |
| RRIRLRPPRLPRPRPRPDWFPRP | -0.173 |
| RRIRVRPPRLPRPRPRPYAFPRP | -0.0621 |
| RRIRLRPPRLPRPRPRPWDWPRP | 0.185 |
| RRIRWRPPRLPRPRPRPYLMPRP | -0.319 |
| RRIRFRPPRLPRPRPRPPQEPRP | 0.258 |
| RRIRQRPPRLPRPRPRPGEMPRP | 0.0469 |
| RRIRMRPPRLPRPRPRPDCTPRP | 2.27 |
| RRIRKRPPRLPRPRPRPHNMPRP | -0.438 |
| RRIRLRPPRLPRPRPRPQAPPRP | 0.138 |
| RRIRIRPPRLPRPRPRPTRCPRP | 0.33 |
| RRIRKRPPRLPRPRPRPGVWPRP | 0.786 |
| RRIRVRPPRLPRPRPRPLPSPRP | 0.244 |
| RRIRRRPPRLPRPRPRPVFHPRP | 0.258 |
| RRIRLRPPRLPRPRPRPYEGPRP | 0.0285 |
| RRIRKRPPRLPRPRPRPFLEPRP | 0.194 |
| RRIRQRPPRLPRPRPRPWNGPRP | -0.0018 |
| RRIRFRPPRLPRPRPRPNSWPRP | -0.0266 |
| RRIRIRPPRLPRPRPRPTVEPRP | -0.0817 |
| RRIRPRPPRLPRPRPRPPTMPRP | 0.223 |
| RRIRERPPRLPRPRPRPALSPRP | 0.15 |

| Sequence | shrunken log2 fold change |
| --- | --- |
| RRIRRRPPRLPRPRPRPSVGPRP | 0.171 |
| RRIRRRPPRLPRPRPRPDWAPRP | -0.221 |
| RRIRERPPRLPRPRPRPTGRPRP | -0.146 |
| RRIRARPPRLPRPRPRPIQPPRP | -0.0587 |
| RRIRIRPPRLPRPRPRPNEEPRP | -0.179 |
| RRIRNRPPRLPRPRPRPVLLPRP | -0.0738 |
| RRIRGRPPRLPRPRPRPSFIPRP | -0.166 |
| RRIRPRPPRLPRPRPRPAETPRP | -0.0458 |
| RRIRCRPPRLPRPRPRPWVFPRP | -0.0816 |
| RRIRMRPPRLPRPRPRPVVFPRP | 2.6 |
| RRIRPRPPRLPRPRPRPRQVPRP | 0.474 |
| RRIRMRPPRLPRPRPRPIMCPRP | -0.19 |
| RRIRQRPPRLPRPRPRPQYCPRP | 0.0332 |
| RRIRWRPPRLPRPRPRPRCIPRP | -0.036 |
| RRIRTRPPRLPRPRPRPNMQPRP | -0.223 |
| RRIRHRPPRLPRPRPRPKNRPRP | -0.227 |
| RRIRNRPPRLPRPRPRPHNIPRP | -0.54 |
| RRIRLRPPRLPRPRPRPMPYPRP | -0.0714 |
| RRIRTRPPRLPRPRPRPQEQPRP | 0.021 |
| RRIRWRPPRLPRPRPRPDAIPRP | -0.0199 |
| RRIRQRPPRLPRPRPRPSVSPRP | -0.000735 |
| RRIRRRPPRLPRPRPRPDWQPRP | 0.399 |
| RRIRERPPRLPRPRPRPRPCPRP | -0.0205 |
| RRIRDRPPRLPRPRPRPFKDPRP | -0.00443 |
| RRIRERPPRLPRPRPRPQFIPRP | -0.014 |

| Sequence | shrunken log2 fold change |
| --- | --- |
| RRIRCRPPRLPRPRPRPDKDPRP | -0.0474 |
| RRIRDRPPRLPRPRPRPQYFPRP | 0.0205 |
| RRIRERPPRLPRPRPRPRGAPRP | 0.59 |
| RRIRARPPRLPRPRPRPQESPRP | 0.0266 |
| RRIRTRPPRLPRPRPRPQQGPRP | -0.238 |
| RRIRMRPPRLPRPRPRPRNDPRP | 0.193 |
| RRIRHRPPRLPRPRPRPAERPRP | 0.0935 |
| RRIRIRPPRLPRPRPRPRQEPRP | -0.131 |
| RRIRPRPPRLPRPRPRPHYNPRP | -0.769 |
| RRIRCRPPRLPRPRPRPQAYPRP | 0.0414 |
| RRIRLRPPRLPRPRPRPDRQPRP | 0.00462 |
| RRIRHRPPRLPRPRPRPDQTPRP | -0.0379 |
| RRIRTRPPRLPRPRPRPSVIPRP | -0.268 |
| RRIRCRPPRLPRPRPRPFEDPRP | -0.019 |
| RRIRSRPPRLPRPRPRPKHWPRP | 0.311 |
| RRIRPRPPRLPRPRPRPKCAPRP | 0.0543 |
| RRIRKRPPRLPRPRPRPLMHPRP | 0.0704 |
| RRIRFRPPRLPRPRPRPMHGPRP | -0.0727 |
| RRIRYRPPRLPRPRPRPRVGPRP | 0.161 |
| RRIRKRPPRLPRPRPRPPLIPRP | 0.285 |
| RRIRSRPPRLPRPRPRPTDVPRP | 0.0781 |
| RRIRFRPPRLPRPRPRPMAAPRP | -0.0736 |
| RRIRRRPPRLPRPRPRPTPCPRP | 0.774 |
| RRIRGRPPRLPRPRPRPLCHPRP | 0.775 |
| RRIRIRPPRLPRPRPRPRNWPRP | 0.18 |
